According to patent publication US8969060B2, “Modified glucose dehydrogenase” (Ikeda Food Research Co., Ltd., priority 2011, dated 2015):

Assays:
[1] = Relative enzymatic activity of GLD (DCIP/1-m-PMS, plate reader, yeast culture supernatant) with proflavin hydrochloride present; assay type: biochemical; settings: site-specific mutants, inhibitor final concentration 1 mM
How it was run: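 Culture supernatant diluted and mixed with reagent of phosphate buffer pH 7.0, 1.0 M D-glucose, 3 mM DCIP, 3 mM 1-m-PMS and methanol (0.1:1:0.14:0.2:0.06). DCIP absorbance decrease at 600 nm followed; proflavin hydrochloride in methanol replaced methanol at 1 mM final. Activity expressed as % of inhibitor-free blank.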

[2] = Relative enzymatic activity of GLD (DCIP/1-m-PMS, plate reader, yeast culture supernatant) with 1,10-phenanthroline present; assay type: biochemical; settings: site-specific mutants, inhibitor final concentration 1 mM
How it was run: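 Inhibitor at 1 mM final substitutes for the methanol in the reagent, and the sample rate is expressed as % of the inhibitor-free blank. Rates come from ΔA600/min of DCIP with glucose and 1-m-PMS at pH 7.0, using supernatants of YPD-grown yeast clones (24 h, 30° C.).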

Molecule	Relative Activity [%] Proflavin hydrochloride [1]	Relative Activity [%] 1,10-Phenanthroline [2]
G352I: modified GLD: SEQ ID NO: 1 with substitution G352I (protein, listed as Aspergillus terreus, SIGNAL (1)..(19)) MLGKLSFLSALSLAVAAPLSNSTSAKYDYIVIGGGTSGLAVANRLSEDPNVNVLILEAGGSVWNNPNVTNVDGYGLAFGSDIDWQYQSVNQPYGGNLSQVLRAGKALGGTSTINGMAYTRAEDVQIDAWETIGNTGWTWKNLFPYYRKSENFTVPTKSQTSLGASYEAGAHGHEGPLDVAFTQIESNNLTTYLNRTFQGMGLPWTEDVNGGKMRGFNLYPSTVNLEEYVREDAARAYYWPYKSRPNLHVLLNTFANRIVWDGEAHDGHITASGVEITSRNGTVRVINAEKEVIVSAGALKSPAILELSGIGNPSVLDKHNIPVKVNLPTVGENLQDQVNSHMDASGNTSISITKAVSYPDVYDVFGDEAESVAKQIRANLKQYAADTAKANGNIMKAADLERLFEVQYDLIFKGRVPIAEVLNYPGSATSVFAEFWALLPFARGSVHIGSSNPAEFPVINPNYFMLDWDAKSYVAVAKYIRRSFESYPLSSIVKESTPGYDVIPRNASEQSWKEWVFDKNYRSNFHPVGTAAMMPREIGGVVDERLNVYGTTNVRVVDASVLPFQVCGHLVSTLYAVAERAADLIKADAGRR	60.9%	85.5%
G352K: modified GLD: SEQ ID NO: 1 with substitution G352K (protein, listed as Aspergillus terreus, SIGNAL (1)..(19)) MLGKLSFLSALSLAVAAPLSNSTSAKYDYIVIGGGTSGLAVANRLSEDPNVNVLILEAGGSVWNNPNVTNVDGYGLAFGSDIDWQYQSVNQPYGGNLSQVLRAGKALGGTSTINGMAYTRAEDVQIDAWETIGNTGWTWKNLFPYYRKSENFTVPTKSQTSLGASYEAGAHGHEGPLDVAFTQIESNNLTTYLNRTFQGMGLPWTEDVNGGKMRGFNLYPSTVNLEEYVREDAARAYYWPYKSRPNLHVLLNTFANRIVWDGEAHDGHITASGVEITSRNGTVRVINAEKEVIVSAGALKSPAILELSGIGNPSVLDKHNIPVKVNLPTVGENLQDQVNSHMDASGNTSISKTKAVSYPDVYDVFGDEAESVAKQIRANLKQYAADTAKANGNIMKAADLERLFEVQYDLIFKGRVPIAEVLNYPGSATSVFAEFWALLPFARGSVHIGSSNPAEFPVINPNYFMLDWDAKSYVAVAKYIRRSFESYPLSSIVKESTPGYDVIPRNASEQSWKEWVFDKNYRSNFHPVGTAAMMPREIGGVVDERLNVYGTTNVRVVDASVLPFQVCGHLVSTLYAVAERAADLIKADAGRR	32.7%	82.5%
G352Q: modified GLD: SEQ ID NO: 1 with substitution G352Q (protein, listed as Aspergillus terreus, SIGNAL (1)..(19)) MLGKLSFLSALSLAVAAPLSNSTSAKYDYIVIGGGTSGLAVANRLSEDPNVNVLILEAGGSVWNNPNVTNVDGYGLAFGSDIDWQYQSVNQPYGGNLSQVLRAGKALGGTSTINGMAYTRAEDVQIDAWETIGNTGWTWKNLFPYYRKSENFTVPTKSQTSLGASYEAGAHGHEGPLDVAFTQIESNNLTTYLNRTFQGMGLPWTEDVNGGKMRGFNLYPSTVNLEEYVREDAARAYYWPYKSRPNLHVLLNTFANRIVWDGEAHDGHITASGVEITSRNGTVRVINAEKEVIVSAGALKSPAILELSGIGNPSVLDKHNIPVKVNLPTVGENLQDQVNSHMDASGNTSISQTKAVSYPDVYDVFGDEAESVAKQIRANLKQYAADTAKANGNIMKAADLERLFEVQYDLIFKGRVPIAEVLNYPGSATSVFAEFWALLPFARGSVHIGSSNPAEFPVINPNYFMLDWDAKSYVAVAKYIRRSFESYPLSSIVKESTPGYDVIPRNASEQSWKEWVFDKNYRSNFHPVGTAAMMPREIGGVVDERLNVYGTTNVRVVDASVLPFQVCGHLVSTLYAVAERAADLIKADAGRR	56.4%	90.4%
G352M: modified GLD: SEQ ID NO: 1 with substitution G352M (protein, listed as Aspergillus terreus, SIGNAL (1)..(19)) MLGKLSFLSALSLAVAAPLSNSTSAKYDYIVIGGGTSGLAVANRLSEDPNVNVLILEAGGSVWNNPNVTNVDGYGLAFGSDIDWQYQSVNQPYGGNLSQVLRAGKALGGTSTINGMAYTRAEDVQIDAWETIGNTGWTWKNLFPYYRKSENFTVPTKSQTSLGASYEAGAHGHEGPLDVAFTQIESNNLTTYLNRTFQGMGLPWTEDVNGGKMRGFNLYPSTVNLEEYVREDAARAYYWPYKSRPNLHVLLNTFANRIVWDGEAHDGHITASGVEITSRNGTVRVINAEKEVIVSAGALKSPAILELSGIGNPSVLDKHNIPVKVNLPTVGENLQDQVNSHMDASGNTSISMTKAVSYPDVYDVFGDEAESVAKQIRANLKQYAADTAKANGNIMKAADLERLFEVQYDLIFKGRVPIAEVLNYPGSATSVFAEFWALLPFARGSVHIGSSNPAEFPVINPNYFMLDWDAKSYVAVAKYIRRSFESYPLSSIVKESTPGYDVIPRNASEQSWKEWVFDKNYRSNFHPVGTAAMMPREIGGVVDERLNVYGTTNVRVVDASVLPFQVCGHLVSTLYAVAERAADLIKADAGRR	45.7%	74.7%
G352L: modified GLD: SEQ ID NO: 1 with substitution G352L (protein, listed as Aspergillus terreus, SIGNAL (1)..(19)) MLGKLSFLSALSLAVAAPLSNSTSAKYDYIVIGGGTSGLAVANRLSEDPNVNVLILEAGGSVWNNPNVTNVDGYGLAFGSDIDWQYQSVNQPYGGNLSQVLRAGKALGGTSTINGMAYTRAEDVQIDAWETIGNTGWTWKNLFPYYRKSENFTVPTKSQTSLGASYEAGAHGHEGPLDVAFTQIESNNLTTYLNRTFQGMGLPWTEDVNGGKMRGFNLYPSTVNLEEYVREDAARAYYWPYKSRPNLHVLLNTFANRIVWDGEAHDGHITASGVEITSRNGTVRVINAEKEVIVSAGALKSPAILELSGIGNPSVLDKHNIPVKVNLPTVGENLQDQVNSHMDASGNTSISLTKAVSYPDVYDVFGDEAESVAKQIRANLKQYAADTAKANGNIMKAADLERLFEVQYDLIFKGRVPIAEVLNYPGSATSVFAEFWALLPFARGSVHIGSSNPAEFPVINPNYFMLDWDAKSYVAVAKYIRRSFESYPLSSIVKESTPGYDVIPRNASEQSWKEWVFDKNYRSNFHPVGTAAMMPREIGGVVDERLNVYGTTNVRVVDASVLPFQVCGHLVSTLYAVAERAADLIKADAGRR	43.7%	80.7%
G352N: modified GLD: SEQ ID NO: 1 with substitution G352N (protein, listed as Aspergillus terreus, SIGNAL (1)..(19)) MLGKLSFLSALSLAVAAPLSNSTSAKYDYIVIGGGTSGLAVANRLSEDPNVNVLILEAGGSVWNNPNVTNVDGYGLAFGSDIDWQYQSVNQPYGGNLSQVLRAGKALGGTSTINGMAYTRAEDVQIDAWETIGNTGWTWKNLFPYYRKSENFTVPTKSQTSLGASYEAGAHGHEGPLDVAFTQIESNNLTTYLNRTFQGMGLPWTEDVNGGKMRGFNLYPSTVNLEEYVREDAARAYYWPYKSRPNLHVLLNTFANRIVWDGEAHDGHITASGVEITSRNGTVRVINAEKEVIVSAGALKSPAILELSGIGNPSVLDKHNIPVKVNLPTVGENLQDQVNSHMDASGNTSISNTKAVSYPDVYDVFGDEAESVAKQIRANLKQYAADTAKANGNIMKAADLERLFEVQYDLIFKGRVPIAEVLNYPGSATSVFAEFWALLPFARGSVHIGSSNPAEFPVINPNYFMLDWDAKSYVAVAKYIRRSFESYPLSSIVKESTPGYDVIPRNASEQSWKEWVFDKNYRSNFHPVGTAAMMPREIGGVVDERLNVYGTTNVRVVDASVLPFQVCGHLVSTLYAVAERAADLIKADAGRR	55.8%	80.5%
G352P: modified GLD: SEQ ID NO: 1 with substitution G352P (protein, listed as Aspergillus terreus, SIGNAL (1)..(19)) MLGKLSFLSALSLAVAAPLSNSTSAKYDYIVIGGGTSGLAVANRLSEDPNVNVLILEAGGSVWNNPNVTNVDGYGLAFGSDIDWQYQSVNQPYGGNLSQVLRAGKALGGTSTINGMAYTRAEDVQIDAWETIGNTGWTWKNLFPYYRKSENFTVPTKSQTSLGASYEAGAHGHEGPLDVAFTQIESNNLTTYLNRTFQGMGLPWTEDVNGGKMRGFNLYPSTVNLEEYVREDAARAYYWPYKSRPNLHVLLNTFANRIVWDGEAHDGHITASGVEITSRNGTVRVINAEKEVIVSAGALKSPAILELSGIGNPSVLDKHNIPVKVNLPTVGENLQDQVNSHMDASGNTSISPTKAVSYPDVYDVFGDEAESVAKQIRANLKQYAADTAKANGNIMKAADLERLFEVQYDLIFKGRVPIAEVLNYPGSATSVFAEFWALLPFARGSVHIGSSNPAEFPVINPNYFMLDWDAKSYVAVAKYIRRSFESYPLSSIVKESTPGYDVIPRNASEQSWKEWVFDKNYRSNFHPVGTAAMMPREIGGVVDERLNVYGTTNVRVVDASVLPFQVCGHLVSTLYAVAERAADLIKADAGRR	49.1%	89.8%
G352R: modified GLD: SEQ ID NO: 1 with substitution G352R (protein, listed as Aspergillus terreus, SIGNAL (1)..(19)) MLGKLSFLSALSLAVAAPLSNSTSAKYDYIVIGGGTSGLAVANRLSEDPNVNVLILEAGGSVWNNPNVTNVDGYGLAFGSDIDWQYQSVNQPYGGNLSQVLRAGKALGGTSTINGMAYTRAEDVQIDAWETIGNTGWTWKNLFPYYRKSENFTVPTKSQTSLGASYEAGAHGHEGPLDVAFTQIESNNLTTYLNRTFQGMGLPWTEDVNGGKMRGFNLYPSTVNLEEYVREDAARAYYWPYKSRPNLHVLLNTFANRIVWDGEAHDGHITASGVEITSRNGTVRVINAEKEVIVSAGALKSPAILELSGIGNPSVLDKHNIPVKVNLPTVGENLQDQVNSHMDASGNTSISRTKAVSYPDVYDVFGDEAESVAKQIRANLKQYAADTAKANGNIMKAADLERLFEVQYDLIFKGRVPIAEVLNYPGSATSVFAEFWALLPFARGSVHIGSSNPAEFPVINPNYFMLDWDAKSYVAVAKYIRRSFESYPLSSIVKESTPGYDVIPRNASEQSWKEWVFDKNYRSNFHPVGTAAMMPREIGGVVDERLNVYGTTNVRVVDASVLPFQVCGHLVSTLYAVAERAADLIKADAGRR	68.1%	80.3%
